Paper PMC6152768, “Dynamic Allostery Modulates Catalytic Activity by Modifying the Hydrogen Bonding Network in the Catalytic Site of Human Pin1” (Molecules : A Journal of Synthetic Chemistry and Natural …, 2017)
Square brackets hold non-standard residues; d marks the D form. Ends that are not written are not given here. pT = C[C@@H](OP(=O)(O)O)[C@H](N)C(=O)O

Molecular target: wild-type human Pin1 PPIase domain (human, UniProt Q13526 1-163)
Assay: ITC; 1.5 uL injections of 10 mM Cdc25C phosphor-peptide into 200 uL of 0.2 mM wild-type or S138A Pin1 PPIase domain in the cell; Microcal Auto iTC200; single-site fit with the stoichiometry fixed to n = 1; in triplicate; buffer and temperature not stated
Details: both partners purified

wild-type human Pin1 PPIase domain, sequence (Q13526 whole entry, the tested form may be a part): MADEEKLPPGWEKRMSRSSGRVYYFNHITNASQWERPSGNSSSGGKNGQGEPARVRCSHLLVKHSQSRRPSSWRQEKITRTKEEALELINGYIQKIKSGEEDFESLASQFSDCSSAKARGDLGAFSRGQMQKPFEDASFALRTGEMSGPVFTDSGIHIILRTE

Kd: 1.81 ± 0.29 mM
stoichiometry N: 1 ± 0.001
B1: phosphor-peptide Cdc25C (EQPLpTPVTDL) (peptide)
peptide: EQPL[pT]PVTDL
notes: Phosphopeptide named Cdc25C; also called phosphorylated peptide Cdc25C; Cdc25C phosphor-peptide; source: bought: Funakoshi (Tokyo, Japan), used without further purification
